From patent US20250282885A1 (VST BIO, published 2025)

B1: R3-P3-A12 (antibody, human IgG1, kappa, V domains shown)
VH: EVQLVESGGGLVQPGRSLRLSCGVSGFTFSSFGMHWVRQAPGKGLEWVAVISNDALHKNYGDSVKGRFTVTRDNSRNTLFLQMTSLRPEDTAVYYCAKDVVRGHTSGSLGSWGQGTLVTVSS
VL: not shown
notes: human IgG1 kappa from the phage campaign
B2: R4M-P1-A10 (antibody, human IgG1, kappa, V domains shown)
VH: EVQLVETGGGVVQPGRSLRLSCAASGFTFSSYAMHWVRQAPGKGLEWVAVISYDGSNKYYADSVKGRFTISRDNSKNTLYLQMNSLRAEDTAVYYCARDRGWADAFDIWGQGTMVTVSS
VL: QAGLTQPPSVSKGLRQTATLTCTGNSNNVGYQGAVWLLQYQGHPPKVLSNRNNDRPSGISERLSASRSGNTASLTITGLQPEDEGDYFCAAWDGSLRGWVFGGGTKLTVLR
B3: R3-P1-C02 (antibody, human IgG1, kappa, V domains shown)
VH: EVQLVESGGGVVQPGGSLRISCVASEFPFSDFGMHWVRQAPGKGLEWVAFVRSHGSGKYYADSVKGRFTISGDKSKSTLYLQMESLRPDDAAVYYCTTLADVWGQGTTVTVSS
VL: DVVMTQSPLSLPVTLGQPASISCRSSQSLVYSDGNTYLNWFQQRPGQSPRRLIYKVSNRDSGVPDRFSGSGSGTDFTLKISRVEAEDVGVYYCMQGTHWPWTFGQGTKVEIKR

Columns and labels:
human Sdc2 [1] = target: T1, human Sdc2 (human, UniProt P34741 19-144, limits assumed); assay: Octet BLI, HIS1K sensor loaded with huSdc2, antibody as sample; Full R2 0.9943
T1 construct: Antigen of the Octet tandem binning, loaded on biosensors at 100 nM; also called huSdc2; hSdc2

[2] = target: human Sdc2 on Human Umbilical Vein Endothelial Cells (HUVEC) (human, UniProt P34741 19-201); assay: cell-based or functional assay
human Sdc2 [3] = target: T1, human Sdc2; assay: Octet tandem binning; saturating Ab f8 19844-R4M-P2-C02
human Sdc2 [4] = target: T1, human Sdc2; assay: Octet tandem binning; saturating Ab f6 19844-R3-P3-E09
human Sdc2 [5] = target: T1, human Sdc2; assay: Octet tandem binning; saturating Ab m5 19844-R4M-P3-A12 (row boxed, self-self >0.09)
human Sdc2 [6] = target: T1, human Sdc2; assay: Octet tandem binning; saturating Ab f11 19838-20-H19-A
human Sdc2 [7] = target: T1, human Sdc2; assay: Octet tandem binning; saturating Ab f5 19844-R4M-P3-E06
human Sdc2 [8] = target: T1, human Sdc2; assay: Octet tandem binning; saturating Ab m3 19844-R3-P1-C02 (row boxed, self-self >0.09)
human Sdc2 [9] = target: T1, human Sdc2; assay: Octet tandem binning; saturating Ab m4 19844-R4M-P1-A10
human Sdc2 [10] = target: T1, human Sdc2; assay: Octet tandem binning; saturating Ab m8 19844-R4M-P1-B01 (marked non-binding ligand)
human Sdc2 [11] = target: T1, human Sdc2; assay: Octet tandem binning; saturating Ab m7 19844-R3-P1-E07
human Sdc2 [12] = target: T1, human Sdc2; assay: Octet BLI, heading box over the sensorgram
human Sdc2 [13] = target: T1, human Sdc2; assay: Octet tandem binning; Buffer in place of a saturating Ab
human Sdc2 [14] = target: T1, human Sdc2; assay: Kd (human Sdc2), summary table of the mAbs
human Sdc2 [15] = target: T1, human Sdc2; assay: Octet tandem binning; saturating Ab m2 19838-8G17-A
human Sdc2 [16] = target: T1, human Sdc2; assay: Octet tandem binning; saturating Ab f3 19838-6N03-A
human Sdc2 [17] = target: T1, human Sdc2; assay: Octet tandem binning; saturating Ab f10 19838-10-I12-A
human Sdc2 [18] = target: T1, human Sdc2; assay: Octet tandem binning; saturating Ab f4 19844-R3-P3-C11
human Sdc2 [19] = target: T1, human Sdc2; assay: Octet tandem binning; saturating Ab f12 19838-6-N03-A
human Sdc2 [20] = target: T1, human Sdc2; assay: Octet tandem binning; saturating Ab m6 19838-20H19-AA (marked non-binding ligand)
human Sdc2 [21] = target: T1, human Sdc2; assay: Octet tandem binning; saturating Ab f9 19838-6-E17-A
human Sdc2 [22] = target: T1, human Sdc2; assay: Octet tandem binning; saturating Ab m1 19838-20H19-AB
mouse Sdc2 [23] = target: T2, mouse Sdc2 (mouse, UniProt P43407 19-145, limits assumed); assay: Octet BLI, heading box over the sensorgram
T2 construct: Immobilised on Maxisorp plates for panning and ELISA; also called mSdc2; moSdc2

human Sdc2 [24] = target: T1, human Sdc2; assay: Octet BLI, heading box over the sensorgram; remark: listed apart in the source
human Sdc2 [25] = target: T1, human Sdc2; assay: Octet BLI, HIS1K sensor loaded with huSdc2, antibody as sample; Full R2 0.9628
Procedure: (§1) In order to characterize the binding affinity and in vivo/in vitro functional ability of the twelve clones generated by the previous studies and disclosed in Table 1, a series of assays were performed on each clone. These assays measured the affinity of each antibody clone for human, pig, and mouse Sdc2 using an Octet® binding assay system. Additionally, the functional ability of each clone to inhibit VEGFA-driven permeability (see Santiago, et al. (2021) J Am Heart Assoc. 10(18):e020521) was assessed in two therapeutic settings: a “prevention” study in which three concentrations of antibody (5 μg/ml, 10 μg/ml, 15 μg/ml, 20 μg/ml, and/or 40 μg/ml depending on the study) were pre-incubated for an hour before administration of 100 ng/ml of VEGFA, and a “treatment” study in which 3 hours of pre-treatment with 100 ng/ml VEGFA were followed by treatment with antibody at 20 μg/ml or 40 μg/ml. Results are shown for 8-G17 in FIG. 8 and FIG. 9, 20-H19-AB in FIG. 10 and FIG. 11 (FIG. 12 for monkey ECs), R3-P3-C11 in FIG. 13 and FIG. 14, R4M-P3-E06 in FIG. 15 and FIG. 16, R3-P3-E09 in FIG. 17 and FIG. 18, R3-P1-C02 in FIG. 19 and FIG. 20, R3-P3-A12 in FIG. 21 and FIG. 22, R4M-P3-A12 in FIG. 23 and FIG. 24, and R4M-P1-A10 in FIG. 25 and FIG. 26.

pig Sdc2 [26] = target: T3, pig Sdc2 (pig, UniProt F1S0L5 19-145); assay: Octet BLI, HIS1K sensor loaded with pigSdc2, antibody as sample; Full R2 0.9632
T3 construct: also called pSdc2
Procedure: as §1

pig Sdc2 [27] = target: T3, pig Sdc2; assay: Octet BLI, heading box over the sensorgram; the box prints nm, the table gives 2.71E-09 M
human Sdc2 [28] = target: T1, human Sdc2; assay: Octet tandem binning; saturating Ab f7 19844-R3-P3-A12
pig Sdc2 [29] = target: T3, pig Sdc2; assay: Octet BLI, heading box over the sensorgram; the box prints nm, the table gives 4.74E-09 M
pig Sdc2 [30] = target: T3, pig Sdc2; assay: Octet BLI, HIS1K sensor loaded with pigSdc2, antibody as sample; Full R2 0.9708
mouse Sdc2 [31] = target: T2, mouse Sdc2; assay: Octet BLI, HIS1K sensor loaded with moSdc2, antibody as sample (curves 111.1, 37, 12.3, 4.1, 1.4, unit inferred); Full R2 0.8674
mouse Sdc2 [32] = target: T2, mouse Sdc2; assay: Octet BLI, heading box over the sensorgram; remark: listed apart in the source
human Sdc2 [33] = target: T1, human Sdc2; assay: Octet BLI, heading box over the sensorgram; remark: listed apart in the source
human Sdc2 [34] = target: T1, human Sdc2; assay: Octet BLI, HIS1K sensor loaded with huSdc2, antibody as sample; Full R2 0.9663
mouse Sdc2 [35] = target: T2, mouse Sdc2; assay: Octet BLI, HIS1K sensor loaded with moSdc2, antibody as sample; Full R2 0.8674

T2 sequence (P43407 19-145 limits assumed): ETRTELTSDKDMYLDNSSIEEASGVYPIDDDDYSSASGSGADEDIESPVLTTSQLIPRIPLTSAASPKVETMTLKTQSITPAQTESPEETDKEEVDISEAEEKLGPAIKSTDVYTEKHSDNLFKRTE
T1 sequence (P34741 19-144 limits assumed): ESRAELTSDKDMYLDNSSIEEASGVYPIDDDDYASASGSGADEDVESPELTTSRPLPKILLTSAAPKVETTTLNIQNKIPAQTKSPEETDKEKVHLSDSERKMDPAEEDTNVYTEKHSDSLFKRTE
Chain of human Sdc2 on Human Umbilical Vein Endothelial Cells (HUVEC) (P34741 19-201 limits assumed): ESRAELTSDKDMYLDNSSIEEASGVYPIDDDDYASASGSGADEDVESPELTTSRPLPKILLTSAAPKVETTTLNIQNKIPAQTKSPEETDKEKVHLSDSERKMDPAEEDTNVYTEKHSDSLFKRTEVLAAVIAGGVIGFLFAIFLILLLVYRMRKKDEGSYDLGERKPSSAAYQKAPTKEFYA

Row | Binder | % Inhibition of VEGFA-induced permeability at 24hrs (20ug/ml) [2] | raw competing-Ab binding signal (human Sdc2 [3]) | raw competing-Ab binding signal (human Sdc2 [4]) | raw competing-Ab binding signal (human Sdc2 [5]) | raw competing-Ab binding signal (human Sdc2 [6]) | raw competing-Ab binding signal (human Sdc2 [7]) | raw competing-Ab binding signal (human Sdc2 [8]) | raw competing-Ab binding signal (human Sdc2 [9]) | raw competing-Ab binding signal (human Sdc2 [10]) | raw competing-Ab binding signal (human Sdc2 [11]) | raw competing-Ab binding signal (human Sdc2 [13]) | Kd (human Sdc2 [14]) | raw competing-Ab binding signal (human Sdc2 [15]) | raw competing-Ab binding signal (human Sdc2 [16]) | raw competing-Ab binding signal (human Sdc2 [17]) | raw competing-Ab binding signal (human Sdc2 [18]) | raw competing-Ab binding signal (human Sdc2 [19]) | raw competing-Ab binding signal (human Sdc2 [20]) | raw competing-Ab binding signal (human Sdc2 [21]) | raw competing-Ab binding signal (human Sdc2 [22]) | other results
1 | B1 | 90% | 0.562 | 0.322 | 0.61 | 0.529 | 0.618 | 0.562 | 0.539 | 0.619 | 0.618 | 0.599 | 2.8 nM | 0.548 | 0.704 | 0.3 | 0.0654 | 0.794 | 0.636 | 0.594 | 0.459 | Kd (human Sdc2 [1]): 2.8 nM; koff (human Sdc2 [1]): 0.00131 s⁻¹; kon (human Sdc2 [1]): 469000 M⁻¹ s⁻¹; Kd (human Sdc2 [12]): ~2.8 nM
2 | B2 | 100% | 0.211 | 0.203 | 0.302 | 0.444 | 0.358 | 0.255 |  | 0.355 | 0.353 | 0.337 | 1.82 nM | 0.377 | 0.362 | 0.418 | 0.193 | 0.406 | 0.32 | 0.34 | 0.439 | Kd (mouse Sdc2 [23]): ~1.85 nM; Kd (human Sdc2 [24]): ~1.82 nM; Kd (human Sdc2 [25]): 1.82 nM; koff (human Sdc2 [25]): 0.00663 s⁻¹; kon (human Sdc2 [25]): 3.65e+06 M⁻¹ s⁻¹; Kd (pig Sdc2 [26]): 2.71 nM; koff (pig Sdc2 [26]): 0.00459 s⁻¹; kon (pig Sdc2 [26]): 1.69e+06 M⁻¹ s⁻¹; Kd (pig Sdc2 [27]): ~2.71 nM; raw competing-Ab binding signal (human Sdc2 [28]): 0.246
3 | B3 | 100% | 0.0877 | 0.0516 | 0.231 | 0.286 | -0.0088 |  | 0.126 | 0.204 | 0.24 | 0.223 | 2.81 nM | 0.207 | 0.221 | 0.235 | 0.0466 | 0.233 | 0.254 | 0.227 | 0.27 | Kd (pig Sdc2 [29]): ~4.74 nM; Kd (pig Sdc2 [30]): 4.74 nM; koff (pig Sdc2 [30]): 0.0103 s⁻¹; kon (pig Sdc2 [30]): 2.16e+06 M⁻¹ s⁻¹; Kd (mouse Sdc2 [31]): 2.44 nM; Kd (mouse Sdc2 [32]): ~2.44 nM; Kd (human Sdc2 [33]): ~2.81 nM; Kd (human Sdc2 [34]): 2.81 nM; koff (human Sdc2 [34]): 0.00946 s⁻¹; kon (human Sdc2 [34]): 3.36e+06 M⁻¹ s⁻¹; raw competing-Ab binding signal (human Sdc2 [28]): 0.103; koff (mouse Sdc2 [35]): 0.114 s⁻¹
